Data reported in PMC3515450, “Mechanistic and Structural Understanding of Uncompetitive Inhibitors of Caspase-6” (PLoS ONE, 2012).
pIC50: −log10 of the molar value. * marks the point of attachment. AMC = Cc1cc(=O)oc2cc(N*)ccc12; R110 = Rhodamine110 dye

Experiments:
caspase-6 = target: T1, caspase-6 (Homo sapiens, UniProt P55212); assay: Caspase-6 enzymatic assay with fluorogenic tetrapeptide substrates; assay type: biochemical
T1 construct: Residues 24-179 and 194-293 from caspase-6 cDNA (Origene) were cloned into pET-24b and pET-23b vectors; 6x histidine tag (C); made in house; host or cells: E. coli BL21 (DE3) pLysS
T1 sequence (P55212 24-179): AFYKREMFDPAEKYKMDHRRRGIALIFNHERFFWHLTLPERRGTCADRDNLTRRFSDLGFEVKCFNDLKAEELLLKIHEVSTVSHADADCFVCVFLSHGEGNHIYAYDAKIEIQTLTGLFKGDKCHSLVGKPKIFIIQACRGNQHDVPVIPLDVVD
T1 sequence (P55212 194-293): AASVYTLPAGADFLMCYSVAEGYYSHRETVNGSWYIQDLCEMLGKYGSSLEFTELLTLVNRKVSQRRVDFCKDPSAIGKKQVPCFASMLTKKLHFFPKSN
Experimental: The in vitro enzymatic caspase assays utilize synthetic tetrapeptide substrates labeled with the fluorophores Rhodamine110 (R110) or 7-amino-4-methylcoumarin (AMC) at the P1 aspartic acid (Asp) residue. All assays were performed in 384-well plates in 12 µL reaction volume consisting of enzyme, substrate and indicated concentration of inhibitor or DMSO in assay buffer (50 mM HEPES [pH 7.0], 25 mM MgSO4, 0.5 mM EGTA, 5 mM Glutathione (GSH), 0.01% Triton X-100 containing 0.1% Bovine Gamma Globulin (BGG)). All inhibitors were serially diluted in 100% DMSO prior to dilution in assay buffer and transfer to assay plate. DMSO was diluted into assay buffer similarly for blank wells (no enzyme or compound) and final DMSO concentration was 1%. The concentration of caspase-6 used in enzymatic reactions typically varied between 1–10 nM depending on substrate used. Unless otherwise indicated, substrate concentration was within 3-fold of the determined Kmapparent (5 µM (Ac-VEID)2R110 [Kmapp = 8 µM]; 5 µM (Ac-DEVD)2R110 [Kmapp = 8 µM]; 25 µM (Ac-IETD)2R110 [Kmapp = 70 µM]; 25 µM (Ac-WEHD)2R110 [Kmapp = 70 µM]; 10µM Ac-VEID-AMC [Kmapp = 16µM]; 5 µM Ac-VEID-R110 [Kmapp = 8 µM]). The concentration of substrate utilized in selectivity assays for each caspase isoform was also held as close to Kmapparent as reasonably achievable (Table S1). Caspases-3 and -7 were expressed and purified at Genentech as the catalytic domain consisting of large p20 and small p10 subunits without prodomain. For all caspase enzymatic assays, the reaction plate was incubated at room temperature for 40 minutes and then read on Envision (Perkin Elmer) fluorescent plate reader at excitation/emission wavelengths of 485/535 nm (R110) or 350/450 nm (AMC). […]
The endpoint fluorescent emission (RFU) in each well was plotted as a function of inhibitor concentration and the 50% inhibition (IC50) values were determined using a nonlinear least squares fit of the data to a four parameter equation using Prism 5.0 software (GraphPad Software, San Diego, CA). […] Ki values for Compound 3 were calculated using this equation: Ki = IC50/(Km/[S] +1). Concentration-response curves for each inhibitor were normalized to zero and 100% based on no enzyme or DMSO control, respectively. For steady-state kinetic analysis, initial reaction velocity (RFU/minute) was plotted against substrate concentration at each inhibitor concentration and the data was fit to a hyperbolic Michaelis-Menten model using Prism 5.0 software. Km (µM) and Vmax (RFU/minute) were calculated by using this equation: v = Vmax • [S]/Km+[S] where v = initial reaction velocity at indicated substrate concentration (S). Vmax values were normalized to zero and 100% based on no enzyme or DMSO control, respectively.
Expression and purification of caspase-6 for enzymatic assays: Human caspase-6 was expressed as the mature enzyme using a split construct. Residues 24-179 and 194-293 from caspase-6 cDNA (Origene) were cloned into pET-24b and pET-23b vectors (Novagen) respectively; the small subunit contained a C-terminal 6x histidine tag. Vectors were cotransfected into the E.coli strain BL21 (DE3) pLysS (Stratagene). Cells were grown from a single colony in 6L of 2xYT supplemented with ampicillin and kanamycin at 37 °C to an OD of ~ 0.5 and were subsequently cooled to 16 °C before overnight induction with 0.2 mM IPTG. Cells were harvested by centrifugation, resuspended in 100 mM NaCl, 100 mM Tris, pH 8.0, and lysed.

caspase-3 = target: T2, caspase-3 (Homo sapiens, UniProt P42574); assay: Caspase-3 enzymatic assay with divalent R110 substrates; assay type: biochemical; conditions: caspase-3
T2 construct: as the catalytic domain consisting of large p20 and small p10 subunits without prodomain; made in house
T2 sequence (P42574 29-175 limits assumed): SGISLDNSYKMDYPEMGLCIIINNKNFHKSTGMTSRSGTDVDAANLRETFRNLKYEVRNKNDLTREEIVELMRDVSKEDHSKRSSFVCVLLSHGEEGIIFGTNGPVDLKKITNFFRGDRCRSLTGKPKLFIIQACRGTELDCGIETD
T2 sequence (P42574 176-277 limits assumed): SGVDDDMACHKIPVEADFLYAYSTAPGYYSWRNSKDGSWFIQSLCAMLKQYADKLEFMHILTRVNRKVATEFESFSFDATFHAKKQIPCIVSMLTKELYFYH
Experimental: The in vitro enzymatic caspase assays utilize synthetic tetrapeptide substrates labeled with the fluorophores Rhodamine110 (R110) or 7-amino-4-methylcoumarin (AMC) at the P1 aspartic acid (Asp) residue. All assays were performed in 384-well plates in 12 µL reaction volume consisting of enzyme, substrate and indicated concentration of inhibitor or DMSO in assay buffer (50 mM HEPES [pH 7.0], 25 mM MgSO4, 0.5 mM EGTA, 5 mM Glutathione (GSH), 0.01% Triton X-100 containing 0.1% Bovine Gamma Globulin (BGG)). All inhibitors were serially diluted in 100% DMSO prior to dilution in assay buffer and transfer to assay plate. DMSO was diluted into assay buffer similarly for blank wells (no enzyme or compound) and final DMSO concentration was 1%. The concentration of caspase-6 used in enzymatic reactions typically varied between 1–10 nM depending on substrate used. Unless otherwise indicated, substrate concentration was within 3-fold of the determined Kmapparent (5 µM (Ac-VEID)2R110 [Kmapp = 8 µM]; 5 µM (Ac-DEVD)2R110 [Kmapp = 8 µM]; 25 µM (Ac-IETD)2R110 [Kmapp = 70 µM]; 25 µM (Ac-WEHD)2R110 [Kmapp = 70 µM]; 10µM Ac-VEID-AMC [Kmapp = 16µM]; 5 µM Ac-VEID-R110 [Kmapp = 8 µM]). The concentration of substrate utilized in selectivity assays for each caspase isoform was also held as close to Kmapparent as reasonably achievable (Table S1). Caspases-3 and -7 were expressed and purified at Genentech as the catalytic domain consisting of large p20 and small p10 subunits without prodomain. For all caspase enzymatic assays, the reaction plate was incubated at room temperature for 40 minutes and then read on Envision (Perkin Elmer) fluorescent plate reader at excitation/emission wavelengths of 485/535 nm (R110) or 350/450 nm (AMC).
The endpoint fluorescent emission (RFU) in each well was plotted as a function of inhibitor concentration and the 50% inhibition (IC50) values were determined using a nonlinear least squares fit of the data to a four parameter equation using Prism 5.0 software (GraphPad Software, San Diego, CA). […]

(Ac-VEID)2R110 = test system: T3, (Ac-VEID)2R110; assay: SPR; as a2, but substrates (10 µM) mixed with compound 3 (1 µM) and injected together over the captured caspase-6 surfaces; apparent
T3 sequence: VEID

Molecule	Kmapp of substrate (caspase-6; caspase-6)	apparent KD with compound 3 (dissociation of both compound and substrate) ((Ac-VEID)2R110)	further results
COc1ccc(-c2cc(C(=O)NC(Cc3ccccc3)C(=O)O)c(C)o2)cc1OC (centres unmarked) [Compound 2]	–	–	binding efficiency index (BEI; pIC50/molecular weight) (caspase-6; caspase-6, (VEID)2R110): 11.5; pIC50 (caspase-6; caspase-6 cleavage of (VEID)2R110 substrate, read-out: IC50): 4.70
(VEID)2R110: Rhodamine110 dye conjugated to two valine-glutamate-isoleucine-aspartate tetrapeptides; fluorogenic substrate (Ac-VEID-R110; also: two VEID chains on one R110 dye) [reference compound]	8 µM	–	Kmapp of substrate (caspase-3): 8 µM; Kcat of substrate (caspase-6; caspase-6, kcat = Vmax/[E]): 0.11 s⁻¹
Ac-VEID-AMC: monovalent VEID substrate in which R110 is replaced by amino-methyl coumarin (Ac-VEID-{AMC}; SMILES CC[C@H](C)[C@H](NC(=O)[C@H](CCC(=O)O)NC(=O)[C@@H](NC(C)=O)C(C)C)C(=O)N[C@@H](CC(=O)O)C(=O)Nc1ccc2c(C)cc(=O)oc2c1) [reference compound]	16 µM	–	–
apo-caspase-6 with C-terminal avi-tag, biotinylated	–	an apparent KD of ∼200 nM	–
mature C163A-caspase-6 with C-terminal avi-tag	–	an apparent KD of ∼200 nM	–
